Assay [1] concerns the target dynactin (purified from pig brains) (pig (endogenous in pig brain)) (UniProt F2Z5G5). The assay can be described thus: negative-stain EM with 3D classification.
Assay [2] concerns the target dynein tail (HC^1-1455) complex (human) (UniProt Q14204). The assay is described as follows: negative-stain EM with 3D classification.
Assay [3] concerns the target dynactin (purified from pig brains) (pig (endogenous in pig brain)) (UniProt F2Z5G5). The assay can be described thus: cryo-EM structure.
In assay [4] the target is wild-type human cytoplasmic dynein-1, SNAPf-tagged, labelled with TMR or Alexa647 (human) (UniProt Q14204).

These results are taken from publication PMC5988349.

As a reminder, the stoichiometry N is the number of molecules, sites or subunits per partner or assembly. Substance “dynein tail (HC^1-1455) complex (from UniProt Q14204;O43237;P63172;P63167;Q9NP97)” gave a percent of adaptor complexes with one dynein (with m5) in assay [1] of 69%. In assay [2], this substance yielded a percent of adaptor complexes with two dyneins (with m2 and m4) of 88%; a percent of adaptor complexes with two dyneins (with m2 and m5) of 17%; a percent of adaptor complexes with two dyneins (with m2 and m6) of 94%. In assay [3], the stoichiometry N was found to be 2.

For the substance “wild-type human cytoplasmic dynein-1, SNAPf-tagged, labelled with TMR or Alexa647 (from UniProt Q14204;O43237;P63172;P63167;Q9NP97) (complex)”, the velocity of BICD2 complexes containing both fluorophores, and hence two dyneins in assay [4] was 1.08 μm/s.
